As a reminder, the EC50 is the concentration needed to bring the measured effect to its halfway point. A high value points to lower potency in that assay.

Drawing on patent US20260043816A1, this text covers EC50 for one molecule.

For assay [1], the target named is peptides 11 and 23 (human). Kind of assay: pairing sandwich ELISA, antibody coated as capture, target titrated. (In general: ELISA stands for enzyme-linked immunosorbent assay.)
Assay [2] addresses peptides 11 and 23 (human). Kind of assay: pairing sandwich ELISA, biotinylated antibody as detector, target titrated.

B1: ACI-8070-942.30D12-Ab1 (antibody, V domains shown)
VH: DVQLVESGGGLVQPGGSRKLSCEASGFTFSSIGMHWVRQAPEKGLEWVAYITSGSSTIYYADTVKGRFTISRDNPKNTLFLQMTSLRSEDTAIYYCAGSGPGTDYWGQGTTLTVSS
VL: DIKMTQSPSSMYASLGERVTITCKASQDINSYLSWFQQKPGKSPKTLIYRANRLVDGVPSRFSGSGSGQDYSLTISSLEYEDMGIYYCLQYDEFPLTFGAGTKLELK
For the molecule B1, the EC50 in assay [1] was 0.904 nM; in assay [2] it was 0.056 nM.
